Paper PMC9779928, “Tartrate resistant acid phosphatase 5 (TRAP5) mediates immune cell recruitment in a murine model of pulmonary bacterial infection” (Frontiers in Immunology, 2022)
One block for each binder: values may come before it. Ends that are not written are not given here.

What was measured:
[1] = target: T1, phosphorylated osteopontin (recombinant human OPN derived from HEK293 cells) (human, UniProt P10451 17-314, phosphorylated (sites not given; phosphorylation pattern in Supplementary Figure 2)); assay: SPR; hBD3, SLPI and LL37 immobilised in different flow cells (50 ug/mL in 10 mM sodium acetate pH 5.5); dOPN or pOPN flowed at 10 uL/min; BIAcore X100, 25°C, HBS-EP (10 mM HEPES, 150 mM NaCl, 3 mM EDTA, 0.05% surfactant P20, pH 7.4); Langmuir model; conditions: both partners purified
T1 construct: osteopontin (OPN), human, recombinant, expressed in HEK293 cells; Commercial protein; From a eukaryotic host, so it probably differs from dOPN in glycosylation as well as in phosphorylation; also called pOPN; SPP1; source: bought: Peprotech (expressed in HEK293 cells; purity >= 97% according to the manufacturer)
T1 sequence (P10451 17-314): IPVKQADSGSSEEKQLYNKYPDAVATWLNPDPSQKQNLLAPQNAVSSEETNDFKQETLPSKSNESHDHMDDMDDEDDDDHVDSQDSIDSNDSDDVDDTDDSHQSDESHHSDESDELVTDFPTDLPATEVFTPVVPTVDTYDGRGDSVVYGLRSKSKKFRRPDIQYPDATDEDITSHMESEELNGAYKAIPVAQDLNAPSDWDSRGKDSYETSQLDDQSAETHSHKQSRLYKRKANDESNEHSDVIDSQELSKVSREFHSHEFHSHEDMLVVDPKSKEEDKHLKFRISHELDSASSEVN

[2] = target: T2, dephosphorylated (non-phosphorylated) osteopontin (recombinant human OPN expressed in E. coli) (human, UniProt P10451 17-314); assay: as above; conditions: both partners purified
T2 construct: osteopontin (OPN), human, recombinant, expressed in E. coli, non-phosphorylated; Commercial protein; Called 'dephosphorylated' but it is simply made in E. coli (non-phosphorylated), not treated with a phosphatase; also called dOPN; SPP1; source: bought: Abcam (expressed in E. coli; purity >= 90% according to the manufacturer)
T2 sequence (P10451 17-314): as above

Kd [1]: 6.25 nM
Kd [2]: 4650 nM
B1: secretory leukocyte protease inhibitor (natural protein, UniProt P03973 26-132, looked up)
chain: SGKSFKAGVCPPKKSAQCLRYKKPECQSDWQCPGKKRCCPDTCGIKCLDPVDTPNPTRRKPGKCPVTYGQCLMLNPPNFCEMDGQCKRDLKCCMGMCGKSCVSPVKA
notes: Commercial protein; also called SLPI; source: bought: Abcam

Kd [1]: 6.5 nM
Kd [2]: 83.8 nM
B2: human β-defensin-3 (peptide, UniProt P81534 23-67, looked up)
chain: GIINTLQKYYCRVRGGRCAVLSCLPKEEQIGKCSTRGRKCCRRKK
modifications: ends and bridges not checked; cysteine pairing not given here
notes: human beta-defensin 3 (hBD-3), antimicrobial peptide; also called hBD3; hBD-3; source: bought: Abcam
